Laboratory results from PMC3169403 (Acta Crystallographica Section F: Structural Biology and …, 2011).

Target: glutaryl-CoA dehydrogenase from Burkholderia pseudomallei (Burkholderia pseudomallei strain 1710b)
Test: crystal structure

Substance “glutaryl-CoA dehydrogenase from Burkholderia pseudomallei (enzyme)” has a stoichiometry N of 4.
